{"source": "paper PMC8743172", "about": "(Current Research in Structural Biology, 2021)", "molecules": {"B1": {"name": "14-3-3η (natural protein, human, UniProt Q04917 1-246, looked up)", "chain": "MGDREQLLQRARLAEQAERYDDMASAMKAVTELNEPLSNEDRNLLSVAYKNVVGARRSSWRVISSIEQKTMADGNEKKLEKVKAYREKIEKELETVCNDVLSLLDKFLIKNCNDFQYESKVFYLKMKGDYYRYLAEVASGEKKNSVVEASEAAYKEAFEISKEQMQPTHPIRLGLALNFSVFYYEIQNAPEQACLLAKQAFDDAIAELDTLNEDSYKDSTLIMQLLRDNLTLWTSDQQDEEAGEGN"}, "B2": {"name": "FITC-labelled 13-mer Amot-p130 peptide (peptide)", "peptide": "{FITC′}-GHVRSL[pS]ERLMQM", "modifications": "also: phosphoserine at 175 (S5 or S7)"}}, "key": {"apo 14-3-3": {"tested_on": "apo 14-3-3", "details": "ref Andrei et al., 2018; cited from earlier work"}, "14-3-3η": {"biological_target": "B1", "test": "fluorescence polarisation"}, "[1]": {"biological_target": "T1, Cy5 labelled 13-mer Amot-p130 peptide (also: phosphoserine at 175 (S5 or S7))", "T1 peptide": "Cy5-GHVRSL[pS]ERLMQM", "test": "MST"}, "[2]": {"biological_target": "B2", "test": "fluorescence polarisation"}, "[3]": {"biological_target": "T2, 14-3-3σΔC (C-terminally truncated after T231) (human, UniProt P31947 1-231)", "T2 sequence (looked up)": "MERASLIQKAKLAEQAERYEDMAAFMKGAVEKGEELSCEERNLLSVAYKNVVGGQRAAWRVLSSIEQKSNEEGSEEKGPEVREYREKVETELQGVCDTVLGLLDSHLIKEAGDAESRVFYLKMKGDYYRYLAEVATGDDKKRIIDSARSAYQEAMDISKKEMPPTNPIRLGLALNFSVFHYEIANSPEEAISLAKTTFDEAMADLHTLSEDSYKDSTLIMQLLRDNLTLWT", "test": "crystal structure"}, "[4]": {"biological_target": "T2, 14-3-3σΔC (C-terminally truncated after …)", "test": "crystal structure", "remark": "listed apart in the source"}, "14-3-3β": {"biological_target": "T3, 14-3-3β (human, UniProt P31946 1-246)", "T3 sequence (looked up)": "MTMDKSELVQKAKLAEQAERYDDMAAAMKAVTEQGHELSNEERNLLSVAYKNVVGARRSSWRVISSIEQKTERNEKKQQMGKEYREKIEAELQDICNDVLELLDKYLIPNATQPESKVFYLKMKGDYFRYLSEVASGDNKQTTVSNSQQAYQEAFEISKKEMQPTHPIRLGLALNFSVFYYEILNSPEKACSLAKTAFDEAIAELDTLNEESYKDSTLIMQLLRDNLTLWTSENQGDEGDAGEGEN", "test": "fluorescence polarisation"}, "14-3-3ε": {"biological_target": "T4, 14-3-3ε (human, UniProt P62258 1-255)", "T4 sequence (looked up)": "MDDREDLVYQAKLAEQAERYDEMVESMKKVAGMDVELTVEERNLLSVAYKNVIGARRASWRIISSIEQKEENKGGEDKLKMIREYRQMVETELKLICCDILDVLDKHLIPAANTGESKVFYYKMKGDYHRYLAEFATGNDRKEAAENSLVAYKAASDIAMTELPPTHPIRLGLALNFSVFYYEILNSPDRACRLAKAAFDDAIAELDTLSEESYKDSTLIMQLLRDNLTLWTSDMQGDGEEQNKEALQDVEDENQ", "test": "fluorescence polarisation"}, "14-3-3τ": {"biological_target": "T5, 14-3-3τ (human, UniProt P27348 1-245)", "T5 sequence (looked up)": "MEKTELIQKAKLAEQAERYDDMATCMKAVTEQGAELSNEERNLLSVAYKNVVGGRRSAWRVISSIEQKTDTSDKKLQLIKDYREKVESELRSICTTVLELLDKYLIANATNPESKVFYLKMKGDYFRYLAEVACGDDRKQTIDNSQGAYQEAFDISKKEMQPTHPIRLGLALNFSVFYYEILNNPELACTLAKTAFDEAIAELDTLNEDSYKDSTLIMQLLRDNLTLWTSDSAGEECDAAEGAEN", "test": "fluorescence polarisation"}, "14-3-3ζ": {"biological_target": "T6, 14-3-3ζ (human, UniProt P63104 1-245)", "T6 sequence (looked up)": "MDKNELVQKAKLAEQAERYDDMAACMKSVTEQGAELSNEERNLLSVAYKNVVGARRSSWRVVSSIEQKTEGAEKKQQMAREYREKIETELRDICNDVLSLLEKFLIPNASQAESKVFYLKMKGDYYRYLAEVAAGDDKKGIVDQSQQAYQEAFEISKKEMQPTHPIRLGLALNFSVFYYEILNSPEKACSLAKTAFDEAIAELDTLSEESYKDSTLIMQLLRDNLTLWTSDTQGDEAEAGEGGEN", "test": "fluorescence polarisation"}}, "note": "Where two headings read alike, the source gives them in different places. Square brackets hold non-standard residues; d marks the D form. Primed or numbered codes have the meaning given here. Ends that are not written are not given here. FITC′ = fluorescein isothiocyanate fluorescent label; TAMRA = tetramethylrhodamine fluorescent label; Cy5 = cyanine-5 fluorescent label; pS = N[C@@H](COP(=O)(O)O)C(=O)O"}
{"molecule": "C=CC(C)(C)OC[C@H]1O[C@H](O[C@@H]2C3=C([C@H](C)CNC(C)=O)C[C@H](O)[C@]3(C)/C=C3/[C@@H](COC)CC[C@H]3[C@@H](C)[C@H]2O)[C@H](O)[C@@H](O)[C@@H]1O", "note": "[FC-NAc]", "values": [{"measurement": "affinity for the apo 14-3-3", "setting": "apo 14-3-3", "result": "higher affinity for the apo 14-3-3"}]}
{"molecule": "{TAMRA}-GHVRSL[pS]ERLMQM (also: phosphoserine at 175 (S5 or S7))", "note": "[TAMRA-labelled 13-mer Amot-p130 peptide]", "values": [{"measurement": "binding result", "setting": "14-3-3η", "result": "binds"}]}
{"molecule": "B1", "values": [{"measurement": "fold stabilisation with 1 mM fragment 09 or 22 against the DMSO control", "setting": "[1]", "result": 2, "unit": "fold"}, {"measurement": "fold stabilisation with 1 mM fragment 09 or 22 against the DMSO control", "setting": "[2]", "result": 2, "unit": "fold"}]}
{"molecule": "GHVRSL[pS]ERLMQM (not fully specified (C-terminus))", "note": "[13-mer Amot-p130 peptide (for crystallography)]", "values": [{"measurement": "binding result", "setting": "[3]", "result": "binds"}]}
{"molecule": "GHVRSL[pS]ERLMQMSLATSGV (not fully specified (C-terminus))", "note": "[20-mer Amot-p130 peptide (for crystallography)]", "values": [{"measurement": "binding result", "setting": "[4]", "result": "binds"}]}
{"molecule": "B2", "values": [{"measurement": "binding result", "setting": "14-3-3β", "result": "binds"}, {"measurement": "binding result", "setting": "14-3-3ε", "result": "binds"}, {"measurement": "binding result", "setting": "14-3-3τ", "result": "binds"}, {"measurement": "binding result", "setting": "14-3-3ζ", "result": "binds"}]}
